# Test results reported in patent publication US20220275092A1 (F STAR THERAPEUTICS, published 2022).
# T1: mouse LAG-3 (mouse, UniProt Q61790 24-442, limits assumed)
# T1 construct: also called mLAG-3
# T1 sequence (looked up): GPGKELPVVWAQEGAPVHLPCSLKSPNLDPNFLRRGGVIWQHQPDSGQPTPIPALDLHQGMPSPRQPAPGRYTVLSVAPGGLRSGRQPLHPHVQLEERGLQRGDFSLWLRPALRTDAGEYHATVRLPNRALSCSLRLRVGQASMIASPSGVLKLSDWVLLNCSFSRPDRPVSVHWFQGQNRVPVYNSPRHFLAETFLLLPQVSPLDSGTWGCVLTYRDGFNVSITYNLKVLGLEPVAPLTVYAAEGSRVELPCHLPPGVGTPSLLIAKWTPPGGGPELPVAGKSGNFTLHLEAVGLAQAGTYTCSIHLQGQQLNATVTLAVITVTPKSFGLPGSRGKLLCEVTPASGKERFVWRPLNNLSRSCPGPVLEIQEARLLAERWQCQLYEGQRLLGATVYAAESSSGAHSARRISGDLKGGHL
# B1: anti-mouse LAG-3/PD-L1 mAb^2 FS18-7-108-29/S1 (with LALA mutation) (bispecific antibody, V domains shown)
# VH: not shown
# VL: DIQMTQSPSSLSASVGDRVTITCRASQDVSTAVAWYQQKPGKAPKLLIYSASFLYSGVPSRFSGSGSGTDFTLTISSLQPEDFATYYCQQYLFTPPTFGQGTKVEIKR
# notes: also called mouse surrogate mAb^2; mLAG-3/PD-L1
# Assays:
# [1] = biological target: T1, mouse LAG-3; test: Biacore (SPR)
# [2] = biological target: T2, mouse PD-L1 (mouse, UniProt Q9EP73 19-239, limits assumed); test: Biacore (SPR)
# T2 construct: also called mPD-L1
# T2 sequence (Q9EP73 19-239 limits assumed): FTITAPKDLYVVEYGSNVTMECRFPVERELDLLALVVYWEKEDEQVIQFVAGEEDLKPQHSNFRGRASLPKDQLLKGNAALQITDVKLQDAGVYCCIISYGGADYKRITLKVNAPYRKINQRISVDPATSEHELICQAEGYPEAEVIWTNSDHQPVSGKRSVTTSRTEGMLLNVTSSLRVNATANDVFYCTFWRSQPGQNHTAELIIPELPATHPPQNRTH
binder,measurement,setting,value
B1,"Biacore binding affinity, fold lower than the binding of FS118 to hLAG-3",[1],~20 fold
same,"Biacore binding affinity, fold higher than the binding of FS118 to hPD-L1",[2],~10 fold
